The chains are these.
B1: TV variant S239C (RSV Fab-Fc dimer fusion, CH3C.35.23.2 on the knob chain, LALA, S239C on the hole chain) (antibody, human IgG1, kappa, L234A L235A)
light: DIQMTQSPSTLSASVGDRVTITCKCQLSVGYMHWYQQKPGKAPKLLIYDTSKLASGVPSRFSGSGSGTEFTLTISSLQPDDFATYYCFQGSGYPFTFGGGTKLEIKRTVAAPSVFIFPPSDEQLKSGTASVVCLLNNFYPREAKVQWKVDNALQSGNSQESVTEQDSKDSTYSLSSTLTLSKADYEKHKVYACEVTHQGLSSPVTKSFNRGEC
heavy 1: QVTLRESGPALVKPTQTLTLTCTFSGFSLSTSGMSVGWIRQPPGKALEWLADIWWDDKKDYNPSLKSRLTISKDTSKNQVVLKVTNMEPADTATYYCARSMITNWYFDVWGAGTTVTVSSASTKGPSVFPLAPSSKSTSGGTAALGCLVKDYFPEPVTVSWNSGALTSGVHTFPAVLQSSGLYSLSSVVTVPSSSLGTQTYICNVNHKPSNTKVDKKVEPKSCDKTHTCPPCPAPEAAGGPSVFLFPPKPKDTLMISRTPEVTCVVVDVSHEDPEVKFNWYVDGVEVHNAKTKPREEQYNSTYRVVSVLTVLHQDWLNGKEYKCKVSNKALPAPIEKTISKAKGQPREPQVYTLPPSRDELTKNQVSLWCLVKGFYPSDIAVEWESYGTEWANYKTTPPVLDSDGSFFLYSKLTVTKEEWQQGFVFSCSVMHEALHNHYTQKSLSLSPGK
heavy 2: QVTLRESGPALVKPTQTLTLTCTFSGFSLSTSGMSVGWIRQPPGKALEWLADIWWDDKKDYNPSLKSRLTISKDTSKNQVVLKVTNMEPADTATYYCARSMITNWYFDVWGAGTTVTVSSASTKGPSVFPLAPSSKSTSGGTAALGCLVKDYFPEPVTVSWNSGALTSGVHTFPAVLQSSGLYSLSSVVTVPSSSLGTQTYICNVNHKPSNTKVDKKVEPKSCDKTHTCPPCPAPEAAGGPCVFLFPPKPKDTLMISRTPEVTCVVVDVSHEDPEVKFNWYVDGVEVHNAKTKPREEQYNSTYRVVSVLTVLHQDWLNGKEYKCKVSNKALPAPIEKTISKAKGQPREPQVYTLPPSRDELTKNQVSLSCAVKGFYPSDIAVEWESNGQPENNYKTTPPVLDSDGSFFLVSKLTVDKSRWQQGNVFSCSVMHEALHNHYTQKSLSLSPGK
notes: also called S239C (100 nM); S239 variant
B2: TV variant A330C (RSV Fab-Fc dimer fusion, CH3C.35.23.2 on the knob chain, A330C on the hole chain) (antibody, human IgG1, kappa, L234A L235A)
light: B1 light
heavy 1: B1 heavy 1
heavy 2: B1 heavy 2 with C242S, A333C
notes: also called Conjugation site A330C
B3: TV variant S442C (RSV Fab-Fc dimer fusion, CH3C.35.23.2 on the knob chain, S442C on the hole chain) (antibody, human IgG1, kappa, L234A L235A)
light: B1 light
heavy 1: B1 heavy 1
heavy 2: B1 heavy 2 with C242S, S445C
notes: also called Conjugation site S442C
B4: TV variant OTR2 (RSV Fab-Fc dimer fusion, CH3C.35.23.2 on the knob chain, S239C on both chains) (antibody, human IgG1, kappa, L234A L235A)
light: B1 light
heavy 1: B1 heavy 1 with S242C
heavy 2: B1 heavy 2
notes: also called OTR2 (1.23)
B5: TV variant 500 nM low affinity (RSV Fab-Fc dimer fusion, CH3C.35.23.4 on the knob chain, S239C on the hole chain) (antibody, human IgG1, kappa, L234A L235A)
light: B1 light
heavy 1: B1 heavy 1 with A392S, T416S
heavy 2: B1 heavy 2
notes: also called 500 nM variant
B6: TV variant OTR4 (RSV Fab-Fc dimer fusion, CH3C.35.23.2 on the knob chain, S239C and A330C on both chains) (antibody, human IgG1, kappa, L234A L235A)
light: B1 light
heavy 1: B1 heavy 1 with S242C, A333C
heavy 2: B1 heavy 2 with A333C
notes: also called OTR4 (2.5)
B7: TV variant SansFab (Fc polypeptide dimer without Fab, CH3C.35.23.2 on the knob chain, S239C on the hole chain) (designed binder)
chain 1: DKTHTCPPCPAPEAAGGPSVFLFPPKPKDTLMISRTPEVTCVVVDVSHEDPEVKFNWYVDGVEVHNAKTKPREEQYNSTYRVVSVLTVLHQDWLNGKEYKCKVSNKALPAPIEKTISKAKGQPREPQVYTLPPSRDELTKNQVSLWCLVKGFYPSDIAVEWESYGTEWANYKTTPPVLDSDGSFFLYSKLTVTKEEWQQGFVFSCSVMHEALHNHYTQKSLSLSPGK
chain 2: DKTHTCPPCPAPEAAGGPCVFLFPPKPKDTLMISRTPEVTCVVVDVSHEDPEVKFNWYVDGVEVHNAKTKPREEQYNSTYRVVSVLTVLHQDWLNGKEYKCKVSNKALPAPIEKTISKAKGQPREPQVYTLPPSRDELTKNQVSLSCAVKGFYPSDIAVEWESNGQPENNYKTTPPVLDSDGSFFLVSKLTVDKSRWQQGNVFSCSVMHEALHNHYTQKSLSLSPGK
notes: Fc knob-in-hole heterodimer with a portion of the IgG1 hinge and LALA mutations; also called No Fab
B8: TV variant N297G knob (DNP02 Fab-Fc dimer fusion, CH3C.35.23.2 on the knob chain, LALAPG, N297G on the knob chain) (antibody, human IgG1, kappa, L234A L235A, N297G)
light: EIVMTQSPATLSLSPGERATLSCSASSSVSYMYWYQQKPGQAPRLLIYDTSNLASGIPARFSGSGSGTDFTLTISSLQPEDFAVYYCQQWSSYPPITFGQGTKVEIKRTVAAPSVFIFPPSDEQLKSGTASVVCLLNNFYPREAKVQWKVDNALQSGNSQESVTEQDSKDSTYSLSSTLTLSKADYEKHKVYACEVTHQGLSSPVTKSFNRGEC
heavy 1: QVQLQESGPGLVKPSETLSLTCAVSGYSITSDYAWNWIRQPPGKGLEWIGYMSYSGSTRYNPSLRSRVTISVDTSKNQFSLKLSSVTAADTAVYYCARGWPLAYWGQGTLVTVSSASTKGPSVFPLAPSSKSTSGGTAALGCLVKDYFPEPVTVSWNSGALTSGVHTFPAVLQSSGLYSLSSVVTVPSSSLGTQTYICNVNHKPSNTKVDKKVEPKSCDKTHTCPPCPAPEAAGGPSVFLFPPKPKDTLMISRTPEVTCVVVDVSHEDPEVKFNWYVDGVEVHNAKTKPREEQYGSTYRVVSVLTVLHQDWLNGKEYKCKVSNKALGAPIEKTISKAKGQPREPQVYTLPPSRDELTKNQVSLWCLVKGFYPSDIAVEWESYGTEWANYKTTPPVLDSDGSFFLYSKLTVTKEEWQQGFVFSCSVMHEALHNHYTQKSLSLSPGK
heavy 2: QVQLQESGPGLVKPSETLSLTCAVSGYSITSDYAWNWIRQPPGKGLEWIGYMSYSGSTRYNPSLRSRVTISVDTSKNQFSLKLSSVTAADTAVYYCARGWPLAYWGQGTLVTVSSASTKGPSVFPLAPSSKSTSGGTAALGCLVKDYFPEPVTVSWNSGALTSGVHTFPAVLQSSGLYSLSSVVTVPSSSLGTQTYICNVNHKPSNTKVDKKVEPKSCDKTHTCPPCPAPEAAGGPSVFLFPPKPKDTLMISRTPEVTCVVVDVSHEDPEVKFNWYVDGVEVHNAKTKPREEQYNSTYRVVSVLTVLHQDWLNGKEYKCKVSNKALGAPIEKTISKAKGQPREPQVYTLPPSRDELTKNQVSLSCAVKGFYPSDIAVEWESNGQPENNYKTTPPVLDSDGSFFLVSKLTVDKSRWQQGNVFSCSVMHEALHNHYTQKSLSLSPGK
notes: Knob-in-hole heterodimer with non-targeting DNP02 Fabs; also called BTGase Knob
B9: TV variant N297G OTR2 (DNP02 Fab-Fc dimer fusion, CH3C.35.23.2 on the knob chain, LALAPG, N297G on both chains) (antibody, human IgG1, kappa, L234A L235A, N297G)
light: B8 light
heavy 1: B8 heavy 1
heavy 2: B8 heavy 2 with N295G
notes: Knob-in-hole heterodimer with non-targeting DNP02 Fabs; also called BTGase DAR2
B10: TV variant T289C (DNP02 Fab-Fc dimer fusion, CH3C.35.23.2 on the knob chain, LALAPG, T289C on the hole chain) (antibody, human IgG1, kappa, L234A L235A)
light: B8 light
heavy 1: B8 heavy 1 with G295N
heavy 2: B8 heavy 2 with T287C
notes: Knob-in-hole heterodimer with non-targeting DNP02 Fabs
B11: TV variant K149C (DNP02 Fab-Fc dimer fusion, CH3C.35.23.2 on the knob chain, LALAPG, K149C on the DNP02 light chain) (antibody, human IgG1, kappa, L234A L235A)
light: B8 light with K149C
heavy 1: B8 heavy 1 with G295N
heavy 2: B8 heavy 2
notes: as for B10
B12: TV variant A114C (DNP02 Fab-Fc dimer fusion, CH3C.35.23.2 on the knob chain, LALAPG, A114C (Kabat) on the hole chain) (antibody, human IgG1, kappa, L234A L235A)
light: B8 light
heavy 1: B8 heavy 1 with G295N
heavy 2: B8 heavy 2 with A116C
notes: as for B10
B13: TV variant N297G hole (DNP02 Fab-Fc dimer fusion, CH3C.35.23.2 on the knob chain, LALAPG, N297G on the hole chain) (antibody, human IgG1, kappa, L234A L235A, N297G)
light: B8 light
heavy 1: B8 heavy 1 with G295N
heavy 2: B8 heavy 2 with N295G
notes: Knob-in-hole heterodimer with non-targeting DNP02 Fabs; also called BTGase Hole

Residue numbers refer to the chain shown, from its start. Names may count otherwise.

One experiment deals with T1, Human transferrin receptor protein 1 (TFR1) (human, UniProt P02786 89-760, limits assumed).
T1 construct: also called huTfR
T1 sequence (P02786 89-760 limits assumed): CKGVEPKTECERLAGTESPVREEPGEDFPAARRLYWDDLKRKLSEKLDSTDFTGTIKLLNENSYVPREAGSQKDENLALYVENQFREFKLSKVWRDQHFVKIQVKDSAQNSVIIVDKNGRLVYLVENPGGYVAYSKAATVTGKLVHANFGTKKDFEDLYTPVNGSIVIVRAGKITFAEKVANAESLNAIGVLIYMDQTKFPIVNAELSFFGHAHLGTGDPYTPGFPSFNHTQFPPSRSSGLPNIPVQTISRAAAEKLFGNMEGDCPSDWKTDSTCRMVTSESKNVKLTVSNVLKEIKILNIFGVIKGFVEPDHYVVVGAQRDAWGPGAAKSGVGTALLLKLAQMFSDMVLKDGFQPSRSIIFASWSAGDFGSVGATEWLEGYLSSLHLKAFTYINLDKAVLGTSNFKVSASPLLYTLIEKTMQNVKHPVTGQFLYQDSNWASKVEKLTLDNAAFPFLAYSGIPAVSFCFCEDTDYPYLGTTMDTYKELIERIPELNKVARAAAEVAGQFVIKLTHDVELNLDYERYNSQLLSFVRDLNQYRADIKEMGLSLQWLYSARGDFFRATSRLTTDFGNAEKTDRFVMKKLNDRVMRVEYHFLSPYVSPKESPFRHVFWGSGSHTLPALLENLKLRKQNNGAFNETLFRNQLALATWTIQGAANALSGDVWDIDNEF
Briefly: column 'Affinity' of the construct table; method not stated.
Molecule B1 had a dissociation constant (Kd) of 100 nM. On the same count and under the same terms, the same measure for B2: 100 nM.

In turn, B3 yielded a Kd of 100 nM.

B4 displayed an equilibrium dissociation constant (Kd) of 100 nM. Still for that read-out and setting: the result for B5 reads 500 nM; that for B6, 100 nM; that for B7, 100 nM.

A further experiment has as its target T1, Human transferrin receptor protein 1 …. The description is as above. This is another data set of the same source.
For the molecule B8, the Kd came to 100 nM. Same read-out and setting: the same measure for B9: 100 nM. The molecule B10 had a Kd of 100 nM.

Consider B11, for which binding was put at a Kd of 100 nM.

B12 had a Kd of 100 nM.

B13 registered a Kd of 100 nM.

For orientation: Kd means the free concentration of one partner at which half of the binding sites on the other are occupied at equilibrium, for simple one-to-one binding. Lower therefore signals tighter binding.
